In assay [1] the target is T1, natural human IL-12 receptor on IL-12R positive human cells (human, UniProt P42701 24-662).
T1 construct: whole, on cells; IL-12 sees up to 3 classes of sites on these cells; also called natural IL-12R
The assay is described as follows: steady state 125I-IL-12 binding to PHA-PBMC (5-7 days), Scatchard, site 2 of 3.

Assay [2] deals with T2, recombinant human IL-12 receptor (clone No. 5, SEQ ID NO:2) expressed in COS cells (human).
T2 construct: 662 amino acid precursor; signal peptide cleavage is only predicted (after Gln20, Ala23 or Cys24); On COS cells present as monomers and disulfide-bonded dimers/oligomers; also called rIL-12R; human rIL-12R
The experiment in a line: steady state binding of 125I-IL-12 to COS cells expressing rIL-12R, Scatchard (Figure 4A).

The target in assay [3] is T1, natural human IL-12 receptor on IL-12R …. The assay is described as follows: steady state 125I-IL-12 binding to YT cells, Scatchard, site 1 of 2.
The target is the same in assay [4]. The experiment in a line: steady state 125I-IL-12 binding to PHA-PBMC (5-7 days), Scatchard, site 1 of 3.
Assay [5] shares this target. The assay is described as follows: steady state 125I-IL-12 binding to Kit-225 cells, Scatchard, site 2 of 3.
The target is the same in assay [6]. The assay is described as follows: steady state 125I-IL-12 binding to K6 cells, Scatchard, site 1 of 3.
Assay [7] has the same target. The experiment in a line: steady state 125I-IL-12 binding to K6 cells, Scatchard, site 2 of 3.
Assay [8] has the same target. The assay is described as follows: steady state 125I-IL-12 binding to YT cells, Scatchard, site 2 of 2.
The target is the same in assay [9]. The assay is described as follows: steady state 125I-IL-12 binding to Kit-225 cells, Scatchard, site 3 of 3.
Assay [10] shares this target. The assay is described as follows: steady state 125I-IL-12 binding to Kit-225 cells, Scatchard, site 1 of 3.
Assay [11] addresses T3, detergent solubilized IL-12R from IL-12R positive human cells (human, UniProt P42701 24-662).
T3 construct: Whole natural receptor protein in detergent extract, not a truncated soluble form; also called soluble IL-12R; approximately 90 kDa protein
The experiment in a line: steady state binding of 125I-IL-12 to IL-12R immunoprecipitated by immobilized 2-4E6 from detergent extract of K6 cells, Scatchard.

The target in assay [12] is T4, human IL-12 receptor subunit stably expressed on murine CTLL cells (human).
T4 construct: CTLL transfectants express only receptor subunit monomers; also called CTLL transfectant; CTLL cell transfectant
The experiment in a line: IL-12 binding to murine CTLL cells stably expressing the IL-12 receptor subunit.

Assay [13] concerns the target T1, natural human IL-12 receptor on IL-12R …. The assay is described as follows: steady state 125I-IL-12 binding to K6 cells, Scatchard, site 3 of 3.
For assay [14], the target named is T2, recombinant human IL-12 receptor (clone …). The assay is described as follows: equilibrium binding of labelled human IL-12 to COS cells expressing clone 5, Scatchard, single site (Figure 19A).
The target of assay [15] is T1, natural human IL-12 receptor on IL-12R …. The experiment in a line: steady state 125I-IL-12 binding to PHA-PBMC (5-7 days), Scatchard, site 3 of 3.

Some results are limits rather than exact numbers.

B1: Recombinant human IL-12 (ligand)
chain 1: RNLPVATPDPGMFPCLHHSQNLLRAVSNMLQKARQTLEFYPCTSEEIDHEDITKDKTSTVEACLPLELTKNESCLNSRETSFITNGSCLASRKTSFMMALCLSSIYEDLKMYQVEFKTMNAKLLMDPKRQIFLDQNMLAVIDELMQALNFNSETVPQKSSLEEPDFYKTKIKLCILLHAFRIRAVTIDRVMSYLNAS
chain 2: IWELKKDVYVVELDWYPDAPGEMVVLTCDTPEEDGITWTLDQSSEVLGSGKTLTIQVKEFGDAGQYTCHKGGEVLSHSLLLLHKKEDGIWSTDILKDQKEPKNKTFLRCEAKNYSGRFTCWWLTTISTDLTFSVKSSRGSSDPQGVTCGAATLSAERVRGDNKEYEYSVECQEDSACPAAEESLPIEVMVDAVHKLKYENYTSSFFIRDIIKPDPPKNLQLKPLKNSRQVEVSWEYPDTWSTPHSYFSLTFCVQVQGKSKREKKDRVFTDKTSATVICRKNASISVRAQDRYYSSSWSEWASVPCS
modifications: ¹²⁵I label (Iodogen method) where used as tracer
notes: 75-KDa heterodimer of p35 and p40; also called HuIL-12; HUIL-12
Turning to B1, the Kd was 0.084 nM in assay [1]; 2 to 6 nM in assay [2]; 0.006 nM in [3]; 0.018 nM in assay [4]; 0.21 nM in assay [5]; 0.016 nM in assay [6]. The Kd in assay [7] was 0.057 nM; in [8], 0.109 nM; in assay [9] it was 2.36 nM; in assay [10], 0.023 nM; in assay [11] it was 0.188 nM; in [12], at least 50 nM. Further, the figures for the Kd in assay [13], in assay [14] and in assay [15] were 2.4 nM, 3.4 nM and 1.8 nM, respectively.

By Kd is commonly meant the equilibrium constant for the complex coming apart.

Source of the values: patent publication EP0638644A1 (F. HOFFMANN-LA ROCHE AG, dated 1995).
